Data set [1] deals with PKR dsRBD (MAGIC factor), Alexa Fluor 488-labeled, not affinity purified (Homo sapiens) (UniProt P19525). In words: pulldown. The following applies: only 4% of labeled protein able to bind dsRNA.
Data set [2] addresses T1, PKR dsRBD (MAGIC factor), Alexa Fluor 488-labeled, affinity purified on dsRNA-agarose (Homo sapiens, UniProt P19525 SEQ:22-205).
T1 chain: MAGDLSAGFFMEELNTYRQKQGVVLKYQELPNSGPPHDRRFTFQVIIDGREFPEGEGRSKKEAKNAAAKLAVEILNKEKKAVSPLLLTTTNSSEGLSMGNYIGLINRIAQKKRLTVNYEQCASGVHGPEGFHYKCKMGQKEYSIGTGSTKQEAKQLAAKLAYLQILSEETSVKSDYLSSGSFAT
Kind of data set: EMSA; Kd value only in figure; about 30-fold higher affinity than unpurified labeled protein. The following applies: tags: N-terminal His6; Alexa Fluor 488 on primary amines; label: Alexa Fluor 647. From the text:
(§1) MAGIC factor was fluorescently-labeled with Alexa Fluor 488 and then reacted with dsRNA-coupled agarose beads to separate binding, functional protein (eluate) from non-binding, non-functional protein (flow and wash fractions). […] Unlabeled and unpurified fluorescent MAGIC factor and affinity purified fluorescent MAGIC factor were reacted with Alexa Fluor 647-labeled dsRNA and ssRNA and run on a native gel. The gel was visualized in the RNA channel (Ex. 633 nm/Em. 670/30 nm BP), protein channel (Ex. 488 nm/Em. 526 nm SP) and FRET channel (Ex. 488 nm/Em. 670/30nm). […] The dashed lines represent the cutoff after which increasing concentrations of only unpurified MAGIC factor were reacted with dsRNA.
In general terms: In EMSA bound probe runs differently from free probe, usually more slowly.

Data set [3] addresses T1, PKR dsRBD (MAGIC factor), Alexa Fluor …. Kind of data set: EMSA; stated to bind specifically to dsRNA; gel result only in figure. The note with it: tags: N-terminal His6; Alexa Fluor 488 on primary amines; label: Alexa Fluor 647.
Text: as §1

In the case of dsRNA coupled to agarose beads, the binding signal in data set [1] was determined as 4%.

B1: EMSA dsRNA (dsRNA)
RNA 1: GAGUCCUUCCACGAUACC
RNA 2: GGUAUCGUGGAAGGACUC
modifications: aminoallyl-uridine in labeled strand; sequence printed with T, transcribed as RNA
For B1, in data set [2], the binding result was “binds”.

B2: EMSA ssRNA (ssRNA)
RNA: GAGUCCUUCCACGAUACC
modifications: aminoallyl-uridine; sequence printed with T, transcribed as RNA
As to B2, in data set [3], the binding result is “no binding”.

The values above are taken from patent US20180142284, “MULTIPLEX ANALYSIS OF GENE EXPRESSION IN INDIVIDUAL LIVING CELLS” (THE GENERAL HOSPITAL CORPORATION, published 2018).
